Laboratory results: patent US20250313611A1

Legend:
[1] = target: spike protein of authentic SARS-COV-2 614G virus (SARS-CoV-2 614G) (UniProt P0DTC2); assay: cell-based or functional assay
[2] = target: spike protein of authentic SARS-COV-2 Delta virus (SARS-CoV-2 Delta); assay: cell-based or functional assay
[3] = target: spike protein of authentic SARS-COV-2 Omicron BA.1 virus (SARS-CoV-2 Omicron BA.1); assay: cell-based or functional assay
[4] = target: spike protein of authentic SARS-COV-2 Omicron BA.2 virus (SARS-CoV-2 Omicron BA.2); assay: cell-based or functional assay
[5] = target: spike protein of authentic SARS-COV-2 Omicron BA.5 virus (SARS-CoV-2 Omicron BA.5); assay: cell-based or functional assay
[6] = target: SARS-COV-2 spike [change] trimer ([change]-foldon-His-Strep) (SARS-CoV-2 (Wuhan)) (UniProt P0DTC2)

| Substance | GM IC50 in ng/mL (GSD factor), live virus microneutralisation [1] [ng/mL] | GM IC50 in ng/mL (GSD factor), live virus microneutralisation [2] [ng/mL] | GM IC50 in ng/mL (GSD factor), live virus microneutralisation [3] [ng/mL] | GM IC50 in ng/mL (GSD factor), live virus microneutralisation [4] [ng/mL] | GM IC50 in ng/mL (GSD factor), live virus microneutralisation [5] [ng/mL] | IC50 (read off the curve) [6] [µg/mL] |
| --- | --- | --- | --- | --- | --- | --- |
| Bebtelovimab Biosimilar (PX-TA1750) (antibody) | 3.8 | 1.6 | 2.5 | 1.7 | 2.4 | – |
| sotrovimab Biosimilar (PX-TA1637) (antibody) | 205 | 141 | 1100 | 7150 | > 10000 | – |
| cilgavimab Biosimilar (PX-TA1033) (antibody) | 30.9 | 28.8 | 156 | 21.2 | – | – |
| CB6 monoclonal antibody | – | – | – | – | – | 0.05 |
